From US20240094221A1, “METHOD FOR PREDICTING THE FERTILITY POTENTIAL OF A FEMALE SUBJECT” (Rigshospitalet, priority 2020, published 2024) come the findings set out here.

In the experiment the test system is female C57BL/6 mice. The experiment in a line: In vivo mice fertility study with RANKL inducer PTH. To be noted: vs vehicle. An excerpt:
Twelve (12) female C57BL/6 mice will be allocated to two treatment groups (n=6, n=6) and administered with test article according to table 1. On study day 7, all females of each treatment group+3 male C57BL/6 mice will be allocated to the fertility study. In the fertility study pairs of 2 females will be housed with 1 male for a period of 5 days. During the 5 days all females are observed daily for vaginal plugs at least once per day. Administration of test articles will continue according to table 1 during the fertility study (days 7 to 11). Presence of vaginal plug, apparent pregnancy, and litter size will be recorded for each female. Females and litter will be terminated at the end of the fertility study and the weight of the pups will be determined.
Administration of test article i.p. (group 1) or vehicle i.p. (group 2) will be conducted 2 times a week for a period of 12 days. • Gr.1: 6 mice, i.p. dosing 2 times weekly for 12 days • Gr.2: 6 mice, i.p. dosing 2 times weekly for 12 days
One blood sample will be harvested on study day 12 from all female mice in the study. The blood samples will be drawn by sublingual vein puncture.
Termination: • female mice from the fertility study, will be terminated on nominal study day 12. Twelwe (12) mice will be euthanized after giving birth to litters

“Also recorded” adds a separate entry of the source.

B1: PTH: Parathyroidea hormone; well-characterized RANKL inducer (protein, UniProt P01270 32-115, looked up)
Parathyroid hormone: SVSEIQLMHNLGKHLNSMERVEWLRKKLQDVHNFVALGAPLAPRDAGSQRPRKKEDNVLVESHEKSLGEADKADVNVLTKAKSQ
modifications: Parathyroid hormone
notes: Parathyroidea hormone; well-characterized RANKL inducer
B1: the pregnancy rate entry (PTH 5 μg/kg i.p., females paired with WT males, FIG. 14A) is “increased; also recorded: doubled”. Under “PTH 5 μg/kg i.p., females paired with WT males, FIG. 14B”, the number of pups entry is reported as “increased”. Moreover, the “number of pups per female” value (PTH 5 μg/kg i.p., females paired with WT males, FIG. 14C) was “increased”. Under “short-term PTH 5 μg/kg i.p., healthy female mice, p<0.05, data not shown”, the ovary weight result is “small but significant effect”.
